{
  "source": "paper PMC7498065",
  "about": "“Isolation of antigen-specific, disulphide-rich knob domain peptides from bovine antibodies” (PLoS Biology, 2020)",
  "key": {"Complement component C5": {"molecular_target": "Complement component C5 (Homo sapiens, UniProt P01031)", "sequence (P01031 19-673 limits assumed)": "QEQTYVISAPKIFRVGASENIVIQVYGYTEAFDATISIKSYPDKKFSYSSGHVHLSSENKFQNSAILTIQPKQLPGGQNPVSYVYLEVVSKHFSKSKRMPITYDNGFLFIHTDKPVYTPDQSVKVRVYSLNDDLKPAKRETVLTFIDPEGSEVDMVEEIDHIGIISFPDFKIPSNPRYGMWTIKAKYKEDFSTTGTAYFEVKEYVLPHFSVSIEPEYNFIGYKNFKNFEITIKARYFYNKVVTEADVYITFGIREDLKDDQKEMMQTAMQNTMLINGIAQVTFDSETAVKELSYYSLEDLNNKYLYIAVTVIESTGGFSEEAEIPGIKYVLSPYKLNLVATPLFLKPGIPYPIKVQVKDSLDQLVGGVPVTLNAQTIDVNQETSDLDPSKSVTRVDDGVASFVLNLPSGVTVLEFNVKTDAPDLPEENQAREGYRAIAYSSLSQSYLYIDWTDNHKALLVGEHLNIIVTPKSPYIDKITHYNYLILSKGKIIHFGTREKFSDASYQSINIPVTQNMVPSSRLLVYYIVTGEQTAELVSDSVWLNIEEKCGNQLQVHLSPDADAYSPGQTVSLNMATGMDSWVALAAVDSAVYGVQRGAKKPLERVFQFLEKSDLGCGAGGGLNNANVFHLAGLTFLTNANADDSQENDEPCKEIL", "sequence (P01031 678-1676 limits assumed)": "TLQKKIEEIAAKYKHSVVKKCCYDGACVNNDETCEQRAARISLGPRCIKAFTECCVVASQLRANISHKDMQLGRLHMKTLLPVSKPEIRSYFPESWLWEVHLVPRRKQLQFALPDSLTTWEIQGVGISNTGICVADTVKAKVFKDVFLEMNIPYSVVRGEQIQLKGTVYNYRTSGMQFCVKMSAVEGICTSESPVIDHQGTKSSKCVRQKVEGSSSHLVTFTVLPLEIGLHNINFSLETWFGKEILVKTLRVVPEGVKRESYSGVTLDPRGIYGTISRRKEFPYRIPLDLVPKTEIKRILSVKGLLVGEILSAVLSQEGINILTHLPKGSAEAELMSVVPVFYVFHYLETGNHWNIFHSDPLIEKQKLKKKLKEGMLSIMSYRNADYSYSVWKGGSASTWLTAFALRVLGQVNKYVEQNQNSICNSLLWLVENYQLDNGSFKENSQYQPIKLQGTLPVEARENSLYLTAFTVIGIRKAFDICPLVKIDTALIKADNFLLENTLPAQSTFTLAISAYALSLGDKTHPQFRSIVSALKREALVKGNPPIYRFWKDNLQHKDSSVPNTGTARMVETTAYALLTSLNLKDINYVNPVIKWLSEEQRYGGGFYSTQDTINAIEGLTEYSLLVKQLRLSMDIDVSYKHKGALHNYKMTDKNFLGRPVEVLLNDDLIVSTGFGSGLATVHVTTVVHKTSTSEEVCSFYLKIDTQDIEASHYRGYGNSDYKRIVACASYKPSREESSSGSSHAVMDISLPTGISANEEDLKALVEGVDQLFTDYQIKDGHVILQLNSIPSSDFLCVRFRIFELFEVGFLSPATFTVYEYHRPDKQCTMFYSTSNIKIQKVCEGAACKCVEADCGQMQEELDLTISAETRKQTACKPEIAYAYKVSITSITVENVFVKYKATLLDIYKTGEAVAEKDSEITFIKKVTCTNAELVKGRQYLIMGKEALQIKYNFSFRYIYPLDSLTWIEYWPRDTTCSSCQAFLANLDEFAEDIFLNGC", "assay": "Biacore SPR single-cycle kinetics of PGT121 Fab-knob domain fusion proteins binding to C5", "conditions": "for Mean kon: C5 amine-coupled on CM5 chip, analyte 1.37 nM-1 µM in HBS-EP; for Mean Stoichiometric ratio at 1 µM: SPR, analyte 1 µM", "experimental": "For PGT121 fusion proteins, flow cells were activated using a minimal immobilisation protocol: EDC/NHS was mixed at 1:2 ratio (flow rate, 10 μL/min; contact time, 30 s). C5, at 1 μg/mL in pH 4.5 sodium-acetate buffer, was immobilized on flow cell 2 only (flow rate, 10 μL/min; contact time, 420 s). Finally, ethanolamine was applied to both flow cells (flow rate, 10 μL/min; contact time, 420 s).\nFor knob domain peptides, flow cells were activated using a standard immobilisation protocol: EDC/NHS was mixed at 1:1 ratio (flow rate, 10 μL/min; contact time, 30 s). C5, at 1 μg/mL in pH 4.5 sodium-acetate buffer, was immobilized on flow cell 2 only (flow rate, 10 μL/min; contact time, 420 s). Finally, ethanolamine was applied to both flow cells (flow rate, 10 μL/min; contact time, 420 s). […] For the PGT121-K149 fusion protein and K149 knob domain, the same immobilisation protocols were used but with a 750 ng/mL solution of C5, instead of 1 μg/mL.\nOne-micromolar stock solutions of the analytes (PGT121 knob domain fusion proteins and free knob domain peptides) were prepared in HBS-EP buffer. A series of six 3-fold dilutions of each stock solution was prepared in the same buffer. The result was 7 solutions for each analyte, at concentrations ranging from 1 μM down to 1.37 nM. A high flow rate of 40 μL/min was used, with a contact time of 230 s and a dissociation time of 1,800 s for knob domain peptides and 10,000 s for PGT121 knob domain fusion proteins. For the PGT121-K149 fusion protein and K149 knob domain, the flow rate was further increased to 100 μL/min. Binding to the reference surface was subtracted, and the data were fitted to a single-site binding model using Biacore evaluation software. Data were inspected for evidence of mass transport limitation using the flow-rate–independent component of the mass transfer constant (tc)."}, "C5": {"molecular_target": "C5 (Homo sapiens, UniProt P01031)", "sequence (P01031 19-673 limits assumed)": "as the sequence (P01031 19-673 limits assumed) above", "sequence (P01031 678-1676 limits assumed)": "as the sequence (P01031 678-1676 limits assumed) above", "assay": "Steady state FRET binding assay, AF647-labelled PGT121 knob fusion proteins binding to C5-Tb (KD app)", "conditions": "C5-Tb 1 nM"}, "[1]": {"conditions": "2 hour incubation, experiment n2, read-out: KD app"}, "[2]": {"conditions": "2 hour incubation, experiment n3, read-out: KD app"}, "[3]": {"conditions": "2 hour incubation, geomean of n=3, read-out: Geomean KD app"}, "[4]": {"conditions": "24 hour incubation, experiment n2, read-out: KD app"}, "[5]": {"conditions": "24 hour incubation, experiment n3, read-out: KD app"}, "[6]": {"conditions": "24 hour incubation, geomean of n=3, read-out: Geomean KD app"}},
  "note": "Read-outs that look alike come from different tables or passages of the source.",
  "data": [
    {"molecule": "PGT121-K136: human Fab PGT121 with the K136 knob domain inserted into CDRH3, flanked by TEV protease sites (antibody) VH: QMQLQESGPGLVKPSETLSLTCSVSGASISDSYWSWIRRSPGKGLEWIGYVHKSGDTNYSPSLKSRVNLSLDTSKNQVSLSLVAATAADSGKYYCARTLHGRRIYGSENLYFQGTCPDNYREVDGCDPYDCCLTTWCTNSYCTRYIENLYFQGSEWFTYFYMDVWGNGTQVTVSS VL: QSVLTQPPDISVAPGETARISCGEKSLGSRAVQWYQHRAGQAPSLIIYNNQDRPSGIPERFSGSPDSPFGTTATLTITSVEAGDEADYYCHIWDSRVPTKWVFGGGTTLTVL", "values": [
      {"measurement": "Mean kon", "setting": "Complement component C5; 1:1 model, mean of n=3", "result": 4760, "unit": "M⁻¹ s⁻¹"},
      {"measurement": "Kd", "setting": "Complement component C5; SPR single-cycle kinetics, 1:1 model, mean of n=3, read-out: Mean KD", "result": "< 2.19", "unit": "nM"},
      {"measurement": "Mean Stoichiometric ratio at 1 µM", "setting": "Complement component C5; mean of n=3", "result": 0.8},
      {"measurement": "off rate (koff)", "setting": "Complement component C5; exceeded the limit for koff determination by Biacore", "result": "< 1e-05", "unit": "s⁻¹"},
      {"measurement": "Rmax", "setting": "Complement component C5; occasion n=1", "result": 38.9, "unit": "RU"},
      {"measurement": "Stoichiometric ratio at 1 µM", "setting": "Complement component C5; occasion n=1", "result": 0.82},
      {"measurement": "kon", "setting": "Complement component C5; occasion n=1", "result": 5480, "unit": "M⁻¹ s⁻¹"},
      {"measurement": "Kd", "setting": "Complement component C5; occasion n=1, read-out: KD", "result": "< 1.82", "unit": "nM"},
      {"measurement": "Rmax", "setting": "Complement component C5; occasion n=2", "result": 38.4, "unit": "RU"},
      {"measurement": "Stoichiometric ratio at 1 µM", "setting": "Complement component C5; occasion n=2", "result": 0.8},
      {"measurement": "kon", "setting": "Complement component C5; occasion n=2", "result": 3520, "unit": "M⁻¹ s⁻¹"},
      {"measurement": "Kd", "setting": "Complement component C5; occasion n=2, read-out: KD", "result": "< 2.84", "unit": "nM"},
      {"measurement": "Rmax", "setting": "Complement component C5; occasion n=3", "result": 40.4, "unit": "RU"},
      {"measurement": "Stoichiometric ratio at 1 µM", "setting": "Complement component C5; occasion n=3", "result": 0.9},
      {"measurement": "kon", "setting": "Complement component C5; occasion n=3", "result": 5280, "unit": "M⁻¹ s⁻¹"},
      {"measurement": "Kd", "setting": "Complement component C5; occasion n=3, read-out: KD", "result": "< 1.89", "unit": "nM"},
      {"measurement": "Kd", "setting": "C5; [1]", "result": 46.3, "unit": "nM"},
      {"measurement": "Kd", "setting": "C5; [2]", "result": 115, "unit": "nM"},
      {"measurement": "Kd", "setting": "C5; [3]", "result": 73, "unit": "nM"},
      {"measurement": "Kd", "setting": "C5; [4]", "result": 23.4, "unit": "nM"},
      {"measurement": "Kd", "setting": "C5; [5]", "result": 58.1, "unit": "nM"},
      {"measurement": "Kd", "setting": "C5; [6]", "result": 39.8, "unit": "nM"}
    ]},
    {"molecule": "PGT121-K149: human Fab PGT121 with the K149 knob domain inserted into CDRH3, flanked by TEV protease sites (antibody) VH: QMQLQESGPGLVKPSETLSLTCSVSGASISDSYWSWIRRSPGKGLEWIGYVHKSGDTNYSPSLKSRVNLSLDTSKNQVSLSLVAATAADSGKYYCARTLHGRRIYGSENLYFQGSCPDGFSYRSWDDFCCPMVGRCLAPRNGSENLYFQGSEWFTYFYMDVWGNGTQVTVSS VL: QSVLTQPPDISVAPGETARISCGEKSLGSRAVQWYQHRAGQAPSLIIYNNQDRPSGIPERFSGSPDSPFGTTATLTITSVEAGDEADYYCHIWDSRVPTKWVFGGGTTLTVL", "values": [
      {"measurement": "Mean kon", "setting": "Complement component C5; 1:1 model, mean of n=3", "result": 3750, "unit": "M⁻¹ s⁻¹"},
      {"measurement": "Mean koff", "setting": "Complement component C5; SPR single-cycle kinetics, 1:1 model, mean of n=3, koff capped at 1.00E-05 s^-1", "result": 0.00164, "unit": "s⁻¹"},
      {"measurement": "Mean Stoichiometric ratio at 1 µM", "setting": "Complement component C5; mean of n=3", "result": 0.5},
      {"measurement": "Rmax", "setting": "Complement component C5; occasion n=1", "result": 13.00, "unit": "RU"},
      {"measurement": "Stoichiometric ratio at 1 µM", "setting": "Complement component C5; occasion n=1", "result": 0.5},
      {"measurement": "koff", "setting": "Complement component C5; occasion n=1", "result": 0.00149, "unit": "s⁻¹"},
      {"measurement": "kon", "setting": "Complement component C5; occasion n=1", "result": 5270, "unit": "M⁻¹ s⁻¹"},
      {"measurement": "Kd", "setting": "Complement component C5; occasion n=1, read-out: KD", "result": 283, "unit": "nM"},
      {"measurement": "Rmax", "setting": "Complement component C5; occasion n=2", "result": 10.00, "unit": "RU"},
      {"measurement": "Stoichiometric ratio at 1 µM", "setting": "Complement component C5; occasion n=2", "result": 0.5},
      {"measurement": "koff", "setting": "Complement component C5; occasion n=2", "result": 0.00162, "unit": "s⁻¹"},
      {"measurement": "kon", "setting": "Complement component C5; occasion n=2", "result": 3840, "unit": "M⁻¹ s⁻¹"},
      {"measurement": "Kd", "setting": "Complement component C5; occasion n=2, read-out: KD", "result": 425, "unit": "nM"},
      {"measurement": "Rmax", "setting": "Complement component C5; occasion n=3", "result": 10.00, "unit": "RU"},
      {"measurement": "Stoichiometric ratio at 1 µM", "setting": "Complement component C5; occasion n=3", "result": 0.4},
      {"measurement": "koff", "setting": "Complement component C5; occasion n=3", "result": 0.00181, "unit": "s⁻¹"},
      {"measurement": "kon", "setting": "Complement component C5; occasion n=3", "result": 2150, "unit": "M⁻¹ s⁻¹"},
      {"measurement": "Kd", "setting": "Complement component C5; occasion n=3, read-out: KD", "result": 842, "unit": "nM"},
      {"measurement": "Kd", "setting": "C5; 2 hour incubation, experiment n1, read-out: KD app", "result": 34.9, "unit": "nM"},
      {"measurement": "Kd", "setting": "C5; [1]", "result": 57.6, "unit": "nM"},
      {"measurement": "Kd", "setting": "C5; [2]", "result": 30.1, "unit": "nM"},
      {"measurement": "Kd", "setting": "C5; [3]", "result": 39.3, "unit": "nM"},
      {"measurement": "Kd", "setting": "C5; 24 hour incubation, experiment n1, read-out: KD app", "result": 127, "unit": "nM"},
      {"measurement": "Kd", "setting": "C5; [4]", "result": 90.6, "unit": "nM"},
      {"measurement": "Kd", "setting": "C5; [5]", "result": 24.9, "unit": "nM"},
      {"measurement": "Kd", "setting": "C5; [6]", "result": 65.9, "unit": "nM"}
    ]}
  ]
}
